Paper PMC3119699, “Characterizing the Role of Cell-Wall β-1,3-Exoglucanase Xog1p in Candida albicans Adhesion by the Human Antimicrobial Peptide LL-37” (PLoS ONE, 2011)
No end group written: not given here.

How the values were obtained:
[1] = molecular target: T1, Xog1p, cell-wall β-1,3-exoglucanase of C. albicans (endogenous) (C. albicans (endogenous in SC5314)) (UniProt P29717)
T1 sequence: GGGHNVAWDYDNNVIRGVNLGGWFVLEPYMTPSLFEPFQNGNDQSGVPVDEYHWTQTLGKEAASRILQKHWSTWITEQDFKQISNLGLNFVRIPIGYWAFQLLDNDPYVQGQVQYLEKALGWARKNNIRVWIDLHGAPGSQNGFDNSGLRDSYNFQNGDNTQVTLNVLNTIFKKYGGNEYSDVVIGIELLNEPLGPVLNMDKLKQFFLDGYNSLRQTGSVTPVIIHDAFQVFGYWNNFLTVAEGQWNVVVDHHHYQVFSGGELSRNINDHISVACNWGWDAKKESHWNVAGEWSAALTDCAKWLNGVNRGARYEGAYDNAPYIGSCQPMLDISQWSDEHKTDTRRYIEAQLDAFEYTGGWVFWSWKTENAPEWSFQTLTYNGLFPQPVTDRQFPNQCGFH

[2] = molecular target: T2, Xog1_(90–115) (residues 90–115 from Xog1p) (C. albicans); experiment: ELISA; Xog1_(90–115) (5 µg) coated on wells; BA-LL37 0.01–5 µg/ml in 0.1% TBST, room temperature 1 h; SA-HRP, A450; details: both partners purified
T2 construct: Residues 90–115 of C. albicans cell-wall β-1,3-exoglucanase Xog1p; also called Xog1p_(90–115); source: synthetic peptide (MDBio, Inc.)
T2 peptide: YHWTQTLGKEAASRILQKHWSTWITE

[3] = molecular target: T3, soluble His-tagged recombinant Xog1p (rXog1p) (C. albicans, UniProt P29717 41-438); experiment: pull-down; streptavidin-agarose, BA-LL37 (bait) and purified rXog1p in TBS, room temperature 2 h; six washes with TBS; Tricine SDS-PAGE, Coomassie Blue; details: both partners purified
T3 construct: An initiator Met comes from the NdeI site; No tag removal is described; also called full-length rXog1p; not shown: His tag (detected with anti-His6)
T3 sequence: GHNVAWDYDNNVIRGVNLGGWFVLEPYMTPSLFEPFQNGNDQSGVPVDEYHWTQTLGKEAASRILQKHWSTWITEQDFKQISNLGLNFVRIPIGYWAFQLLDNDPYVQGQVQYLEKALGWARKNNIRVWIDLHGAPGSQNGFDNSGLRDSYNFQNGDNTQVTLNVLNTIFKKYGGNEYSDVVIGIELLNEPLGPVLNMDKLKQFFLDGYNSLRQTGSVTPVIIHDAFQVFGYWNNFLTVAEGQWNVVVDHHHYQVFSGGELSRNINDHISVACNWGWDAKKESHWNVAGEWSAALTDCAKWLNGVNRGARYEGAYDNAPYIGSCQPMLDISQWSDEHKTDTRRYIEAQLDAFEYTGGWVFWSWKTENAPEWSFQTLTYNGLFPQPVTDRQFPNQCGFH

Work on LLGDFFRKSKEKIGKEFKRIVQRIKDFLRNLVPRTES [LL-37 (human cathelicidin antimicrobial peptide)] yielded an inhibition of C. albicans adhesion to polystyrene (XTT reduction) at 5 µg/ml (∼1.1 µM) LL-37 [1] of 70%.

B1: biotinylated LL-37 (BA-LL37) (peptide)
peptide: LLGDFFRKSKEKIGKEFKRIVQRIKDFLRNLVPRTES
modifications: also: biotinylated (site not given here)
notes: LL-37, the mature 37-residue C-terminal peptide cut from human cathelicidin by proteinase-3; biotinylated; Detected or captured by its biotin (SA-HRP, SA-DTAF, streptavidin-agarose); source: synthetic peptide (MDBio, Inc.), 95% pure
B1: binds [2]; binds [3].
